Results from the supplement of paper PMC9170038.

Test system: MS2 coat protein
Assay: apparent KD of MS2 coat protein; designed switch direction (-1 OFF switch, 1 ON switch): -1; higher = weaker reporter binding
Outline: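 On Illumina chips, designed RNA switches with common flanks were made by stalled E. coli RNA polymerase. Titrations with SNAP-549-labelled MS2 coat protein, doubling from 0.7 or 1.5 nM to 3 µM, were done with no input, with 200 uM small-molecule ligand, or with an oligonucleotide input. Apparent KD is the median per design over clusters, from curve fits of normalised cluster fluorescence.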

[1] = Eterna round: R95, input ligand: microRNA oligo, concentration not stated
[2] = input ligand: microRNA oligo, concentration not stated
[3] = Eterna round: R95, input ligand: FMN 200 uM
[4] = Eterna round: R95, input ligand: none

| Sequence | apparent KD of MS2 coat protein [1] | apparent KD of MS2 coat protein (input ligand: FMN 200 uM) | apparent KD of MS2 coat protein (input ligand: none) | apparent KD of MS2 coat protein [2] | apparent KD of MS2 coat protein [3] | apparent KD of MS2 coat protein [4] |
| --- | --- | --- | --- | --- | --- | --- |
| CUUUUGUGAGGAUAUUAGUAGUAAAUAAAUAAUAUUACUACUGAGAAGGCACAUGAGGAUCACCCAUGUUCCUC [salish99_ex4_r3_059] (puzzle: Exclusion 4) | 0.0388 µM |  |  |  |  |  |
| CUUUUGUGAGGAUAUUGGUAGUAAAUAAAUAAAAUUAUUACCGAGAAGGUACAUGAGGAUCACCCAUGUUCCUC [Salish 062 v18] (Eterna round: R97, puzzle: Exclusion 4) |  | 0.0321 µM | 0.0182 µM |  |  |  |
| GAAAAACAUGAGGAUCACCCAUGUAAGGAUAUGCUGAAAAACACGGAAAAAACGUGCAGCAGAAGGUACAAAAG [Mat - Exclusion 1 - Eli mod - D91] (Eterna round: R96, puzzle: Exclusion 1) |  | 0.107 µM | 0.0711 µM | 0.0448 µM |  |  |
| GAAAACGCAGGAUAUUAAUACUUAUACAUGAGGAUCACCCAUGUUUAUUGGGAUUAAGAAUAAGAAGGGCGAUGAA [EX5 #1] (Eterna round: R97, puzzle: Exclusion 5) |  | 0.0308 µM | 0.024 µM |  |  |  |
| GAAAACGGAGAGGAUAUUUGAGAUCAAAGCUCCAAAGAAGGCUCCACAUGAGGAUCACCCAUGUGGUCUUCAAG [Mat - Exclusion 6 - JL Mod - D14] (Eterna round: R97, puzzle: Exclusion 6) |  | 0.0867 µM | 0.017 µM |  |  |  |
| GAAAAGCGAGGAUAUACUUGCAGUGUACCUCGGGUGAUCUCACUUGAGGAUCACCCAAGUAGAAGGCGCGAGGG [Quletibe] (Eterna round: R97, puzzle: Exclusion 2) |  | 0.0045 µM | 0.0452 µM |  |  |  |
| GAAAAGGUAGGAUAUACGAAAAAAAAGGGUAGAAAAAAAACACAUGAGGAUCACCCAUGUAGAAGGACCAGAAG [salish99_ex2_r3_038] (puzzle: Exclusion 2) | 0.0279 µM |  |  |  | 0.0728 µM | 0.0173 µM |
| GAAAAGGUAGGAUAUACGAAAAAAAAGGGUAGAAAAAUAACACAUGAGGAUCACCCAUGUAGAAGGACCAAAAG [salish99_ex2_r3_074] (puzzle: Exclusion 2) | 0.023 µM |  |  |  | 0.111 µM | 0.029 µM |
| GAAAAGGUAGGAUAUACGAAAAAAAAGGGUAGAAAGAAAACACAUGAGGAUCACCCAUGUAGAAGGACCAAAAG [salish99_ex2_r3_017] (puzzle: Exclusion 2) | 0.0273 µM |  |  |  | 0.0661 µM | 0.0207 µM |
| GAAAAGUGAGGAUAUCGACAUCUCGACAUGAGGAUCACCCAUGUUGUAGGUCGUGUCGAGCGAGAAGGCACAAUAA [EX5 B.9] (Eterna round: R97, puzzle: Exclusion 5) |  | 0.0482 µM | 0.015 µM |  |  |  |
| GAAAGAGUUCAGGAUAUCAGAGUCCAGCGACACUGAGAAGGGAAAACAUGAGGAUCACCCAUGUGGUCCUAAGC [Eternabot (L2) Solution 80] (Eterna round: R97, puzzle: Exclusion 6) |  | 0.348 µM | 0.105 µM |  |  |  |
| GAACCGCGAGGAUAUACAGUCGAGUCUAUUACGUGUCUCGGACUUGAGGAUCACCCAAGUAGAAGGCGUCUCAG [salish99_ex2_r4_635] (Eterna round: R97, puzzle: Exclusion 2) |  | 0.0545 µM | 0.0562 µM |  |  |  |
| GAACUGAGGCAAAGCUUUAGUCGUACAUGAGGAUCACCCAUGUAGGAUAUGGUAGGCUUUGCUUACCAGAAGGACAGAGUGAUC [Mat - Exclusion NG 3 - Mod of JL - D59] (Eterna round: R96, puzzle: Exclusion NG 3) |  |  |  | 0.0763 µM |  |  |
| GAAGAAGAGAGAAUAGAAAACAUGAGGAUCACCCAUGUGAGAAGAUGAGGGUGUAAUAGGCUUUUUGCUCGUCUUAU (puzzle: Sensor v3, turn-off variant 1) | 0.0944 µM |  |  |  | 0.0427 µM | 0.056 µM |
| GAAGAGACAGGAUAUACAUGAGGAUCACCCAUGUGAGGAGGUUGGAGGCGGAGGAGGUGUAGAAGGGUCAAAGA [JR_Exclu3_Sub021] (puzzle: Exclusion 3) | 0.0297 µM |  |  |  | 0.0416 µM | 0.0388 µM |
| GAAGAGACAGGAUAUACAUGAGGAUCACCCAUGUGAGUAAGGUAGAGGCGGAGGAGAUGUAGAAGGGUCAAAGA [JR_Exclu3_Sub016] (puzzle: Exclusion 3) | 0.0356 µM |  |  |  | 0.0499 µM | 0.0415 µM |

| Sequence | apparent KD of MS2 coat protein [1] | apparent KD of MS2 coat protein (input ligand: FMN 200 uM) | apparent KD of MS2 coat protein (input ligand: none) | apparent KD of MS2 coat protein [2] | apparent KD of MS2 coat protein [3] | apparent KD of MS2 coat protein [4] |
| --- | --- | --- | --- | --- | --- | --- |
| GAAGAGACAGGAUAUACAUGAGGAUCACCCAUGUGAGUAUGUUAGAGGCGGAGGAGAUGUAGAAGGGUCAAAGA [JR_Exclu3_Sub017] (puzzle: Exclusion 3) | 0.0196 µM |  |  |  | 0.0399 µM | 0.0316 µM |
| GAAGCACAUGAGGAUCACCCAUGUGAGGAUAUCCGUCUGGUCCGGCCGGACCAGUACCGGAGAAGGCGCGUAAA [Excls1-Ia] (puzzle: Exclusion 1) | 0.0401 µM |  |  |  |  |  |
| GAAGUCGACUAGGAUAUUACAGGCUCAUGCCGUUGAGAAGGAGUGACAUGAGGAUCACCCAUGUCCUCAAGCGC [Eternabot (Original) Solution 48] (Eterna round: R97, puzzle: Exclusion 6) |  | 0.0203 µM | 0.0162 µM |  |  |  |
| GAAUAGAGAGGAUAUGCAAUGUAGGUAGUACGAUAUAUCUGACAUGAGGAUCACCCAUGUAGAAGGCUCAGAUC [EX2 #7] (Eterna round: R97, puzzle: Exclusion 2) |  | 0.0404 µM | 0.0379 µM |  |  |  |
| GAAUGAGAGCAGGAUAUCUUAUAAAUGUAUGGAAGAGAAGGGCUCACAUGAGGAUCACCCAUGUGGUCCUAGAU [jl-ex6-4.70 jandersonlee mod] (Eterna round: R97, puzzle: Exclusion 6) |  | 0.215 µM | 0.0365 µM |  |  |  |
| GAAUUAAUUAAUUAAUAAUACAUGAGGAUCACCCAUGUAGAUCCUACAUACAAGCUUUGUAGCUCGUCUUAUAAUUA [Stov1/3-A2] (Eterna round: R97, puzzle: Sensor, turn-off variant 1) |  | 0.33 µM | 0.48 µM |  |  |  |
| GACAUCGCAGGAUAUUAGAGUUUUUACAUGAGGAUCACCCAUGUUAAUUGGGUUAAUGUCUAAGAAGGGCGAUGUC [JR_EX5_Sub015] (Eterna round: R97, puzzle: Exclusion 5) |  | 0.113 µM | 0.0494 µM |  |  |  |
| GACCGGGCAGGAUAUACAAAACCUCGGUGUAUUUUGGACCGACAUGAGGAUCACCCAUGUAGAAGGGCCUAAGG [Eternabot (Original) Solution 4] (Eterna round: R97, puzzle: Exclusion 2) |  | 0.0342 µM | 0.0236 µM |  |  |  |
| GACUAAACACGAGGAUAUGCCUGGGAAGAACAGGCAGAAGGCGUGACAUGAGGAUCACCCAUGUAGCCGGGCUAUUCUCGUACG [Tirearerar] (Eterna round: R96, puzzle: Exclusion NG 1) |  | 0.0308 µM | 0.0303 µM | 0.0247 µM |  |  |
| GACUAAAUUUUGUUUGGUUACAUGAGGAUCACCCAUGUUGGUCUAAGAACAUGUCUUUUGUACGCUUGUCUUAUAUA [JR_SV3TOV1_Sub068] (puzzle: Sensor v3, turn-off variant 1) | 0.0458 µM |  |  |  | 0.0766 µM | 0.0963 µM |
| GACUAGGCAGGAUAUACAUGAGGAUCACCCAUGUGUCUGCGAUAGGCACGUGAUUACUGUAGAAGGGCCUUGAC [Exclusion 3 - mod of a parushev design] (puzzle: Exclusion 3) | 0.204 µM |  |  |  |  |  |
| GACUAGGCAGGAUAUACAUGAGGAUCACCCAUGUGUCUGCGUUGGGCACGUGAACACCGUAGAAGGGCCUUGAC [ChP 13.04.2015 #14] (Eterna round: R96, puzzle: Exclusion 3) |  | 0.0364 µM | 0.0202 µM | 0.0162 µM |  |  |
| GACUAGGCAGGAUAUACAUGAGGAUCACCCAUGUGUCUGCGUUGGGCACGUGAACACCGUAGAAGGGCCUUGAC [ChP 13.04.2015 #14] (puzzle: Exclusion 3) | 0.0144 µM |  |  |  |  |  |
| GAGAAAUGUGUUAGGAUAUCCCGCUAAAGCAGAUAGGAGAAGGAACAUGAGGAUCACCCAUGUAGGGAGGGCCA [Eternabot (Original) Solution 17] (Eterna round: R97, puzzle: Brourd's mod of Exclusion 4) |  | 0.192 µM | 0.067 µM |  |  |  |
| GAGAAGGUAGGAUAUACGAAUAAAUAGGGUAGUAAUAAUACACAUGAGGAUCACCCAUGUAGAAGGACCAAGAG [Mat - Exclusion 2 - Mod of my Tesla design - D39] (puzzle: Exclusion 2) | 0.0228 µM |  |  |  | 0.0381 µM | 0.025 µM |
